Assays:
AncSZ = experiment: phosphorylation enrichment, bacterial display (enrichment ratio); higher = better substrate or ligand; peptides without Tyr show the background
EPHB1 = EPHB1 (UniProt P54762); experiment: as above
EPHB2 = EPHB2 (UniProt P29323); experiment: as above
FGFR1 = FGFR1 (UniProt P11362); experiment: as above
FGFR3 = FGFR3 (UniProt P22607); experiment: as above
Fer (mouse) = experiment: as above
Fes = Fes (UniProt P07332); experiment: as above
Fyn = Fyn (UniProt P06241); experiment: as above
Fyn, sequence (P06241 whole entry, looked up): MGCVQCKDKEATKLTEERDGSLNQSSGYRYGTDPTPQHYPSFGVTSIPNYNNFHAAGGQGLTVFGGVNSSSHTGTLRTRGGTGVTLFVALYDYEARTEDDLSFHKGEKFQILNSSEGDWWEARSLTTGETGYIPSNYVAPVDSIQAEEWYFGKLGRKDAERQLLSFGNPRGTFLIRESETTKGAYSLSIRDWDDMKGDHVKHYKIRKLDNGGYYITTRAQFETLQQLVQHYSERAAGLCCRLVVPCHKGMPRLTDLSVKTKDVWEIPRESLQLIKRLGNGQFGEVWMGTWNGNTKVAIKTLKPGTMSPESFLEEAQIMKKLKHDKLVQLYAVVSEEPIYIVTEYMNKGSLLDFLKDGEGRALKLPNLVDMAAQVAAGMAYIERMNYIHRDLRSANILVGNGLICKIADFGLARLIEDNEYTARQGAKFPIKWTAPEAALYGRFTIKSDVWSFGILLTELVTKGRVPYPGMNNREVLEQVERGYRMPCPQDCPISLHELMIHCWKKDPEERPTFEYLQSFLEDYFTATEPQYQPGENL

Hck = Hck (UniProt P08631); experiment: as above
Hck, sequence (P08631 whole entry, looked up): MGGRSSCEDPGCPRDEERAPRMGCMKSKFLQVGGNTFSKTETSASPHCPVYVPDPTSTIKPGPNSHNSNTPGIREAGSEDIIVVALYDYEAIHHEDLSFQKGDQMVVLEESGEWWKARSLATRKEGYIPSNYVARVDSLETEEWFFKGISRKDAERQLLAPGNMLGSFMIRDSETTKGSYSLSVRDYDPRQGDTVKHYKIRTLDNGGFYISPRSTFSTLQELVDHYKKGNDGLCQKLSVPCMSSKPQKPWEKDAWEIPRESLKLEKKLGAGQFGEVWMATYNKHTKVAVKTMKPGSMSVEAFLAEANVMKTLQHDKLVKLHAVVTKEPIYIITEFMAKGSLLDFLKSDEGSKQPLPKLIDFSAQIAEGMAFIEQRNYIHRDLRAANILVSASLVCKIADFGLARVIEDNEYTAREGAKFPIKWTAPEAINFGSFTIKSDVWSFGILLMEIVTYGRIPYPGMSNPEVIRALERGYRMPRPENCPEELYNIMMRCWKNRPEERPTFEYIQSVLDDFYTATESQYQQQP

Jak2 = Jak2 (UniProt O60674); experiment: as above
MERTK = MERTK (UniProt Q12866); experiment: as above
MERTK, sequence (Q12866 whole entry, looked up): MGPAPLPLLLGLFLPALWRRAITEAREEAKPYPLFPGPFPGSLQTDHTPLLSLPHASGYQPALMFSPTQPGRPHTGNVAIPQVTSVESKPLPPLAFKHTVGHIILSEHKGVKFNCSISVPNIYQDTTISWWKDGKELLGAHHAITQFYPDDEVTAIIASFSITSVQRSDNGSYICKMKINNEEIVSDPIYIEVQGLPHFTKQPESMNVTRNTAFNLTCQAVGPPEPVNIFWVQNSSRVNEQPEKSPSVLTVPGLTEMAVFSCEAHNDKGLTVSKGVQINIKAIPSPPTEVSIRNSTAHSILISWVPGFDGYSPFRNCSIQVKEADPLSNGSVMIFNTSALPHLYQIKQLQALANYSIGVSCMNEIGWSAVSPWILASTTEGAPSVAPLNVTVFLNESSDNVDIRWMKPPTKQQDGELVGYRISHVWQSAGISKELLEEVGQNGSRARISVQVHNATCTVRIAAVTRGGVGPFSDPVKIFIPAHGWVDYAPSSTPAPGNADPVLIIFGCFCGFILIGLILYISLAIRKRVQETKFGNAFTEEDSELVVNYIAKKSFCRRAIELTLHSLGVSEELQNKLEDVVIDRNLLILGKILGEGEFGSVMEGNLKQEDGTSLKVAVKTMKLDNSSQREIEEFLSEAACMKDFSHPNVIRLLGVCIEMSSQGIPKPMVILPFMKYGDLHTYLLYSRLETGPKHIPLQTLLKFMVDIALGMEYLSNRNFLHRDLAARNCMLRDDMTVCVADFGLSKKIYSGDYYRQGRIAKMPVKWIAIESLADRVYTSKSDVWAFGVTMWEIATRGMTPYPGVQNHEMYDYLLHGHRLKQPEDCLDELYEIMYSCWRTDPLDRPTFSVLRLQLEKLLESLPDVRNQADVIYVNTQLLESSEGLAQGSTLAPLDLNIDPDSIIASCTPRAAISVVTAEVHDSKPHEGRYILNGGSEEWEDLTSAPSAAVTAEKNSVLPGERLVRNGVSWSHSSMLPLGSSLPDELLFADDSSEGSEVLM

c-Abl (mouse) = experiment: as above
c-Src = experiment: as above
Grb2 SH2 = Grb2 SH2 (UniProt P62993); experiment: SH2 binding enrichment of the phosphorylated peptide, bacterial display (enrichment ratio); higher = better substrate or ligand; peptides without Tyr show the background
SHP2-C SH2 = experiment: as above
c-Src SH2 = experiment: as above
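Wherever SH2 binding enrichment of the phosphorylated peptide, bacterial display is given: peptide library displayed on the E. coli surface as eCPX fusions, selected cells deep-sequenced, score is each peptide's frequency after selection divided by its frequency in the input.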
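Wherever phosphorylation enrichment, bacterial display is given: 11-residue human phosphosite peptides and single-mutation variants displayed on the E. coli surface, counted by deep sequencing, each peptide's frequency after selection divided by its frequency in the unselected input library; frequency after pTyr selection over input frequency; kinase dosed for 20-30% of maximal phosphorylation in three min.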

EPHB1, sequence (P54762 whole entry, looked up): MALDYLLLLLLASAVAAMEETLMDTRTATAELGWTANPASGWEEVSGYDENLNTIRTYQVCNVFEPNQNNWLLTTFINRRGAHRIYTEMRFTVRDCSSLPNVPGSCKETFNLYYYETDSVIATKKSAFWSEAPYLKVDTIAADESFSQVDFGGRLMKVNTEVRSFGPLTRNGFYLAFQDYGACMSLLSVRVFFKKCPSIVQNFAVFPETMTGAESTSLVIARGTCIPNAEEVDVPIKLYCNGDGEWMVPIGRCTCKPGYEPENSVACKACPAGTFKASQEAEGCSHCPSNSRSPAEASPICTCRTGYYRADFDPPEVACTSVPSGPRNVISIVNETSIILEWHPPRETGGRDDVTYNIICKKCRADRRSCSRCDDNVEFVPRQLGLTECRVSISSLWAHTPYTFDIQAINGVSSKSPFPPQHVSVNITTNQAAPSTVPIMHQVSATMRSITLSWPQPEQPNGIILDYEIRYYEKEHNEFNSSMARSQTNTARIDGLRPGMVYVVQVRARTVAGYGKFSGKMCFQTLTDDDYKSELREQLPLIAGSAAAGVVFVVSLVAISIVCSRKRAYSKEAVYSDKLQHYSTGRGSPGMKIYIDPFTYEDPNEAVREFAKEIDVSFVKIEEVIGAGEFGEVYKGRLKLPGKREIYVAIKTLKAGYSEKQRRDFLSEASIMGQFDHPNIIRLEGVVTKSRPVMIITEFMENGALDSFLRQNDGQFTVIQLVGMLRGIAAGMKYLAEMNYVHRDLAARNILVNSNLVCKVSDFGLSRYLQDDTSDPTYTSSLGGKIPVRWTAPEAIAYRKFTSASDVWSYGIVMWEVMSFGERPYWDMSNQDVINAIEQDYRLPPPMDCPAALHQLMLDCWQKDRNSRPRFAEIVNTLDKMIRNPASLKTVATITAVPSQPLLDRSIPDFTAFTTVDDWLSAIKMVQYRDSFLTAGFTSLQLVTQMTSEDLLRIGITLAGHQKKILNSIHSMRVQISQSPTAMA
EPHB2, sequence (P29323 whole entry, looked up): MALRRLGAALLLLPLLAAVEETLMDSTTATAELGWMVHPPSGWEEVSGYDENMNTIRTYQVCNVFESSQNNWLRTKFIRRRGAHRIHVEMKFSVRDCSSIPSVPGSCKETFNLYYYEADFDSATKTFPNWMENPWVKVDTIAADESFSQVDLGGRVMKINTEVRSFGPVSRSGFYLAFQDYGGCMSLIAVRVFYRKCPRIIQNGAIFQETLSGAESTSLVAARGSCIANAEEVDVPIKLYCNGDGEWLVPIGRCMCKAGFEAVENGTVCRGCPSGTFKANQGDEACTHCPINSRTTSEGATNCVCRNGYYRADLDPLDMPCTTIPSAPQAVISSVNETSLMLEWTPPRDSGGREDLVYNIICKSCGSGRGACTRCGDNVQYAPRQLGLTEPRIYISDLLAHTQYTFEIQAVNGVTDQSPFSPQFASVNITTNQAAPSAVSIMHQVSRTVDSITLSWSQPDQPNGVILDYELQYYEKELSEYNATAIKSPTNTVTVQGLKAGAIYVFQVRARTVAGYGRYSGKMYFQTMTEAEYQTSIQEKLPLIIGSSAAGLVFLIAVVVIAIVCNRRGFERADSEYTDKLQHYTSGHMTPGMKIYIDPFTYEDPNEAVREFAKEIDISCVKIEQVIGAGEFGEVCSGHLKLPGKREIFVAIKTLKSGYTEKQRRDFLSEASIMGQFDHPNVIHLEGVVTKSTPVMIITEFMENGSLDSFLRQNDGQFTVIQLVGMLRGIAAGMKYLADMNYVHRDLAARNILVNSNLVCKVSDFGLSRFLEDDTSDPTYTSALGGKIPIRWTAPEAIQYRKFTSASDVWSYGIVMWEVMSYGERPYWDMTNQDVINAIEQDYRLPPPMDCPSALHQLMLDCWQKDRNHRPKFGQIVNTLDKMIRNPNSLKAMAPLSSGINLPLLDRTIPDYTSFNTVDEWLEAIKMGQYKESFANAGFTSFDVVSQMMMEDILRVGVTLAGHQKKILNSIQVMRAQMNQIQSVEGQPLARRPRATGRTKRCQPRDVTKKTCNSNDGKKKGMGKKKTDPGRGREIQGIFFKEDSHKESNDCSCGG
FGFR3, sequence (P22607 whole entry, looked up): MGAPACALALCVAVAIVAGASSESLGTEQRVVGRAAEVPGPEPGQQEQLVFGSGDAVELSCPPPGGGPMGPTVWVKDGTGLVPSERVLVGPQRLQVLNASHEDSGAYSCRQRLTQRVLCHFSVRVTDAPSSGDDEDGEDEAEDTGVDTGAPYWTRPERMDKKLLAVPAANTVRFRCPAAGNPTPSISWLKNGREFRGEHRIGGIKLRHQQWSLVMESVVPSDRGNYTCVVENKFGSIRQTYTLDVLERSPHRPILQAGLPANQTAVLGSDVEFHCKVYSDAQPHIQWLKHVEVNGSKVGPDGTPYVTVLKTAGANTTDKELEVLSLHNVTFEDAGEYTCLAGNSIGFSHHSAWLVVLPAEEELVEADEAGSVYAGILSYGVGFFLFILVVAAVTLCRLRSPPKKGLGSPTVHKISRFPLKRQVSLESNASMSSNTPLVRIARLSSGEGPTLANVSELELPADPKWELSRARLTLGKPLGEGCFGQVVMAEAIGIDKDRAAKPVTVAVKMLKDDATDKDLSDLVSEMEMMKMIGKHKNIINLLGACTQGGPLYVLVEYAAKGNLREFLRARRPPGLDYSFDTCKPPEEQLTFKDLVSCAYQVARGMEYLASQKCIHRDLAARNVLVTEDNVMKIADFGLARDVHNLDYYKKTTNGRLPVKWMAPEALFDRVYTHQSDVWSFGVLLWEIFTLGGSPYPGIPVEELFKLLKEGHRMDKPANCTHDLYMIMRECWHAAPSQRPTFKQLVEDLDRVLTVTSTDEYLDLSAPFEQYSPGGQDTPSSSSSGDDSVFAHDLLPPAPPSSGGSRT

Row | Sequence | SH2 binding enrichment (Grb2 SH2) | SH2 binding enrichment (SHP2-C SH2) | SH2 binding enrichment (c-Src SH2) | phosphorylation enrichment (AncSZ) | phosphorylation enrichment (EPHB1) | phosphorylation enrichment (EPHB2) | phosphorylation enrichment (FGFR1) | phosphorylation enrichment (FGFR3) | phosphorylation enrichment (Fer (mouse)) | phosphorylation enrichment (Fes) | phosphorylation enrichment (Fyn) | phosphorylation enrichment (Hck) | phosphorylation enrichment (Jak2) | phosphorylation enrichment (MERTK) | phosphorylation enrichment (c-Abl (mouse)) | phosphorylation enrichment (c-Src)
1 | SVVVPYKPPEV [TP53_Y220_E221K] | 0.795 | 0.599 | 0.546 | 0.915 | 0.501 | 0.461 | 0.477 | 0.448 | 0.471 | 0.792 | 0.458 | 0.421 | 0.761 | 0.517 | 0.584 | 0.596
2 | SVVVRYEPPEV [TP53_Y220_P219R] | 0.967 | 0.775 | 0.882 | 0.892 | 0.445 | 0.503 | 0.409 | 0.517 | 0.466 | 0.902 | 0.371 | 0.42 | 0.705 | 0.425 | 0.747 | 0.386
3 | SYNNKYGMVAQ [APOB_Y276_K273N] | 0.713 | 0.555 | 0.49 | 0.623 | 0.381 | 0.474 | 0.41 | 0.471 | 0.411 | 0.632 | 0.428 | 0.476 | 0.607 | 0.378 | 0.61 | 0.467
4 | SYTDPYAQPSL [KMT2D_Y2378_P2382S] | 0.823 | 0.775 | 2.6 | 1.18 | 0.583 | 0.568 | 3.11 | 1.89 | 0.479 | 1 | 0.611 | 0.567 | 0.718 | 0.532 | 0.82 | 0.576
5 | TAPFNYSFIFK [RAB14_Y8_YF] | 0.581 | 0.722 | 0.724 | 0.975 | 2 | 0.692 | 0.405 | 0.771 | 0.376 | 1.1 | 0.493 | 0.56 | 0.757 | 2.27 | 0.657 | 0.377

Further lines, with some results ahead:

Row | SH2 binding enrichment (Grb2 SH2) | SH2 binding enrichment (SHP2-C SH2) | SH2 binding enrichment (c-Src SH2) | Sequence | phosphorylation enrichment (AncSZ) | phosphorylation enrichment (EPHB1) | phosphorylation enrichment (EPHB2) | phosphorylation enrichment (FGFR1) | phosphorylation enrichment (FGFR3) | phosphorylation enrichment (Fer (mouse)) | phosphorylation enrichment (Fes) | phosphorylation enrichment (Fyn) | phosphorylation enrichment (Hck) | phosphorylation enrichment (Jak2) | phosphorylation enrichment (MERTK) | phosphorylation enrichment (c-Abl (mouse)) | phosphorylation enrichment (c-Src)
6 | 0.837 | 0.645 | 0.506 | SVVVPYEPSEV [TP53_Y220_P223S] | 1.21 | 0.632 | 0.515 | 0.52 | 0.846 | 0.685 | 1.23 | 0.554 | 0.6 | 1.02 | 0.503 | 0.619 | 0.509
7 | 1.07 | 0.569 | 0.812 | SWDKRYCEAGF [ITGA2B_Y197] | 0.892 | 0.867 | 0.692 | 0.506 | 0.561 | 0.531 | 1.28 | 0.509 | 0.648 | 0.888 | 0.455 | 0.687 | 0.426
8 | 0.706 | 0.701 | 0.484 | TAGFSYEKWEI [TEC_Y360] | 1.52 | 0.472 | 0.577 | 0.533 | 0.72 | 1.46 | 1.21 | 0.503 | 0.536 | 1 | 0.549 | 0.694 | 0.463

— the supplement of paper PMC10065799, “High-throughput profiling of sequence recognition by tyrosine kinases and SH2 domains using bacterial peptide display” (eLife, 2023)
